% CD155 and TIGIT+ NK Cells data for 2 substances are collected here from patent publication US20170281764A1.

Test [1] has as its target CD155 on K562 cells (human) (UniProt P15151). In words: flow cytometry of K562 cells stained with APC-labelled anti-CD155 (clone SKII.4 per paragraph 220); percent of cells in the marker gate from about 2x10^1 to 10^4. (Flow cytometry measures light scatter and fluorescence of single cells or particles in a stream.)
Test [2] concerns the target human TIGIT on cells (Jurkat-TIGIT cells; human T cells, NK cells and other blood cells) (human) (UniProt Q495A1). Description: flow cytometry of human PBMCs, PE anti-TIGIT (clone MBSA43 per paragraph 220) against A488 anti-CD56; CD56+ TIGIT+ gate, unit not given; middle panel (second of 3 donors).
Test [3] has the same target. Description: flow cytometry of human PBMCs, PE anti-TIGIT (clone MBSA43 per paragraph 220) against A488 anti-CD56; CD56+ TIGIT+ gate, unit not given; right panel (third of 3 donors).
Test [4] has the same target. In words: flow cytometry of human PBMCs, PE anti-TIGIT (clone MBSA43 per paragraph 220) against A488 anti-CD56; CD56+ TIGIT+ gate, unit not given; left panel (first of 3 donors).

human TIGIT on cells (Jurkat-TIGIT cells; human T cells, NK cells and other blood cells) (human), sequence (Q495A1 22-244): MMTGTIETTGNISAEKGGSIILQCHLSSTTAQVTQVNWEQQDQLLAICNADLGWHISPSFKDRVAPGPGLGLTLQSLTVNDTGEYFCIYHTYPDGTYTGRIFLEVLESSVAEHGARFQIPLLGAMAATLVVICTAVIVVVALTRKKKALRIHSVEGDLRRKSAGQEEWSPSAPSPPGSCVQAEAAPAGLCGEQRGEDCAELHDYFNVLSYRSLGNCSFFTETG
CD155 on K562 cells (human), sequence (P15151 21-417 limits assumed): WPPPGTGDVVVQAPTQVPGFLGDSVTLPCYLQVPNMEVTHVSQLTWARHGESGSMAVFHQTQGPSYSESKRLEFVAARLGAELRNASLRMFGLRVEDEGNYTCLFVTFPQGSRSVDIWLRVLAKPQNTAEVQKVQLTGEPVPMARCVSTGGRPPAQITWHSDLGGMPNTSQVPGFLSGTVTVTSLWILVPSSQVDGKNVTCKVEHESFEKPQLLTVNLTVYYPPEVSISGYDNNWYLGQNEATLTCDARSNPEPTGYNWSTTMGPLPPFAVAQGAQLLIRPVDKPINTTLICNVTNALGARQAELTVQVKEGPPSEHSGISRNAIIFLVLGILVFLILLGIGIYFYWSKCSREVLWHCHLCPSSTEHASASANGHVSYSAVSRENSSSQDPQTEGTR

Turning to CD155 - APC (antibody), the % CD155 in test [1] came out at 98.5%.

For the substance “anti-human TIGIT antibody clone MBSA43 (commercial; eBiosciences / BioLegend)”, the TIGIT+ NK Cells in test [2] was determined as 8.03; in test [3] it was 5.47; in test [4] it was 4.84.
